{"source": "paper PMC4335406", "key": {"[1]": {"biological_target": "DsLOV, short LOV protein from Dinoroseobacter shibae DFL12T (Dinoroseobacter shibae DFL12T)", "assay": "SEC; analytical size-exclusion chromatography; data not shown; conditions not given"}, "[2]": {"biological_target": "DsLOV, short LOV protein from Dinoroseobacter shibae DFL12T (Dinoroseobacter shibae DFL12T)", "assay": "small angle X-ray scattering (SAXS); 7.2 and 14.8 mg/ml DsLOV in 10 mM NaH2PO4, 300 mM NaCl, pH 8.0, 10°C; beamline BM29, ESRF"}}, "data": [{"substance": "DsLOV, short LOV protein from Dinoroseobacter shibae DFL12T (natural protein)", "values": [{"measurement": "stoichiometry N", "setting": "[1]", "value": 2}, {"measurement": "stoichiometry N", "setting": "[2]", "value": 2}]}]}
